Legend:
[1] = target: Staphylococcus aureus protein A (Staphylococcus aureus) (UniProt P38507); experiment: particle-based immunoassay read by flow cytometry; protein A covalently coupled (EDC/sulfo-NHS) to 2.35 μm carboxylated PS beads; 10 μg purified BBM.1 in 1 mL PBS pH 8.2, 2 h; detected with GαM-AF488
[2] = target: Staphylococcus aureus protein A (Staphylococcus aureus) (UniProt P38507); experiment: particle-based immunoassay read by flow cytometry; protein A covalently coupled (EDC/sulfo-NHS) to 6 μm (PAH/PAA)2 polyelectrolyte microcapsules; 10 μg purified BBM.1 in 1 mL PBS pH 8.2, 2 h; detected with GαM-AF488; dose-response also in PBS pH 7.2 and complete RPMI

murine monoclonal antibody BBM.1
mean fluorescence intensity (MFI) [1]: 12.2
mean fluorescence intensity (MFI) [2]: 33.5

From paper PMC6054379
